In patent US20050107315A1, “Mammary-associated serum amuloid a3 promoter sequences and used for same” (Board of Regents of the University of Nebraska, priority 2001, published 2005):

System: Bovine MAC-T mammary gland epithelial cells
Assay: Colostrum-SAA production by MAC-T cells stimulated with prolactin (ELISA of growth media)
Assay type: cell-based
Procedure: Bovine MAC-T mammary gland epithelial cells were obtained from ATCC (CRL-10274) and cultured according to recommended conditions (Turner, J D and Huynh H. Immortalized bovine mammary epithelial cell line. U.S. Pat. No. 5,227,301 dated Jul. 13, 1993). MAC-T cells were cultured on Dulbecco's Modified Eagles Media (DMEM) supplemented with 10% Fetal Calf Serum (FCS), 5 μg/ml insulin, 1μg/ml hydrocortisone and fungizone. Cells were incubated at 37° C. with 5% CO2. For colostrum-SAA production the cells were seeded onto type I Collagen coated plates. After 14 hours of incubation, the cells were washed twice with Dulbecco's phosphate buffered saline (DPBS) and incubated in media (DMEM, 5 μg/ml insulin, 1 μg/ml hydrocortisone and 2.5% FCS) supplemented with prolactin from sheep pituitary gland (5 μg/ml) for the stimulation of colostrum-SAA production. Approximately one half of the media was replaced daily with fresh prolactin supplemented media. Standard ELISA for the quantitation of SAA was used to assay aliquots of the growth media collected on the different days for the presence of colostrum-SAA.
Cells were kept in culture for 41 days in media supplemented with prolactin. Levels of colostrum-SAA production reached a maximum of almost 3000 ng/ml.

B1: prolactin: prolactin from sheep pituitary gland (protein, UniProt P01240 31-229, looked up)
Prolactin: TPVCPNGPGNCQVSLRDLFDRAVMVSHYIHNLSSEMFNEFDKRYAQGKGFITMALNSCHTSSLPTPEDKEQAQQTHHEVLMSLILGLLRSWNDPLYHLVTEVRGMKGVPDAILSRAIEIEEENKRLLEGMEMIFGQVIPGAKETEPYPVWSGLPSLQTKDEDARHSAFYNLLHCLRRDSSKIDTYLKLLNCRIIYNNNC
- maximum level of colostrum-SAA production (media supplemented with prolactin 5 μg/ml, 41 days in culture, collagen coated plates): ~3000 ng/mL
- day by which measurable quantities of colostrum-SAA could be detected (prolactin at 5 μg/ml, MAC T cells, 13 days of stimulation (FIG. 2)): ≤ 1 days
